Where two headings read alike, the source gives them in different places.

The chains are these.
B2: T4 bacteriophage sliding clamp (gp45) (natural protein)
chain: MKLSKDTTALLKNFATINSGIMLKSGQFIMTRAVNGTTYAEANISDVIDFDVAIYDLNGFLGILSLVNDDAEISQSEDGNIKIADARSTIFWPAADPSTVVAPNKPIPFPVASAVTEIKAEDLQQLLRVSRGLQIDTIAITVKEGKIVINGFNKVEDSALTRVKYSLTLGDYDGENTFNFIINMANMKMQPGNYKLLLWAKGKQGAAKFEGEHANYVVALEADSTHDF
B3: T4 bacteriophage clamp-loader ATPase subunit gp44 (wild type) (natural protein)
chain: MITVNEKEHILEQKYRPSTIDECILPAFDKETFKSITSKGKIPHIILHSPSPGTGKTTVAKALCHDVNADMMFVNGSDCKIDFVRGPLTNFASAASFDGRQKVIVIDEFDRSGLAESQRHLRSFMEAYSSNCSIIITANNIDGIIKPLQSRCRVITFGQPTDEDKIEMMKQMIRRLTEICKHEGIAIADMKVVAALVKKNFPDFRKTIGELDSYSSKGVLDAGILSLVTNDRGAIDDVLESLKNKDVKQLRALAPKYAADYSWFVGKLAEEIYSRVTPQSIIRMYEIVGENNQYHGIAANTELHLAYLFIQLACEMQWK
B5: T4 bacteriophage clamp-loader ATPase subunit gp44 D110C (natural protein)
chain: MITVNEKEHILEQKYRPSTIDECILPAFDKETFKSITSKGKIPHIILHSPSPGTGKTTVAKALCHDVNADMMFVNGSDCKIDFVRGPLTNFASAASFDGRQKVIVIDEFCRSGLAESQRHLRSFMEAYSSNCSIIITANNIDGIIKPLQSRCRVITFGQPTDEDKIEMMKQMIRRLTEICKHEGIAIADMKVVAALVKKNFPDFRKTIGELDSYSSKGVLDAGILSLVTNDRGAIDDVLESLKNKDVKQLRALAPKYAADYSWFVGKLAEEIYSRVTPQSIIRMYEIVGENNQYHGIAANTELHLAYLFIQLACEMQWK

The target in data set [1] is T1, T4 clamp loader (gp44/gp62), wild type;T4 sliding clamp gp45 (bacteriophage T4;bacteriophage T4, UniProt P04526;P04527;P04525 1-319;1-187;1-228, |).
T1 sequence 1: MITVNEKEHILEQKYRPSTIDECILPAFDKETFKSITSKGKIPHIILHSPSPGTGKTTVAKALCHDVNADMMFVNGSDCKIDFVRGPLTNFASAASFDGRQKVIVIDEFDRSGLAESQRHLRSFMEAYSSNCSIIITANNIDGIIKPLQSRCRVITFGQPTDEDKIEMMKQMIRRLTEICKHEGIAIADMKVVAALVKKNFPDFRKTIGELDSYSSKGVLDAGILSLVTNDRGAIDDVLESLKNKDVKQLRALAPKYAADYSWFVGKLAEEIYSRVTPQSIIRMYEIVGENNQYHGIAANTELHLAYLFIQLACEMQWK
T1 sequence 2: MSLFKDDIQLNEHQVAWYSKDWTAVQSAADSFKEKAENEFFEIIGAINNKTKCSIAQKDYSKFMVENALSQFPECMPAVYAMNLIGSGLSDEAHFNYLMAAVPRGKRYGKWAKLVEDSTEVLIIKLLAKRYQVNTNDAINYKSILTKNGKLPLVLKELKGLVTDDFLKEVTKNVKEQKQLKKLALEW
T1 sequence 3: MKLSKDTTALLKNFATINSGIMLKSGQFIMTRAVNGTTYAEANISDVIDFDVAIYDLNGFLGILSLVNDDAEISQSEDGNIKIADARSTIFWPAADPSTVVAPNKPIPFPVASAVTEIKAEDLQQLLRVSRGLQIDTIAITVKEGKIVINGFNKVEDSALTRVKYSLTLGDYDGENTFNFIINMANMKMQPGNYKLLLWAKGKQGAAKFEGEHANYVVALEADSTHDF
Put plainly: fluorescence anisotropy. For orientation: Fluorescence polarisation rises when a labelled molecule tumbles more slowly, as on binding a larger partner.

Data set [2] addresses T2, T4 clamp loader D110C/G143R;T4 sliding clamp gp45 (bacteriophage T4;bacteriophage T4, UniProt P04526;P04527;P04525 1-319;1-187;1-228, D110C;G143R|).
T2 sequence 1: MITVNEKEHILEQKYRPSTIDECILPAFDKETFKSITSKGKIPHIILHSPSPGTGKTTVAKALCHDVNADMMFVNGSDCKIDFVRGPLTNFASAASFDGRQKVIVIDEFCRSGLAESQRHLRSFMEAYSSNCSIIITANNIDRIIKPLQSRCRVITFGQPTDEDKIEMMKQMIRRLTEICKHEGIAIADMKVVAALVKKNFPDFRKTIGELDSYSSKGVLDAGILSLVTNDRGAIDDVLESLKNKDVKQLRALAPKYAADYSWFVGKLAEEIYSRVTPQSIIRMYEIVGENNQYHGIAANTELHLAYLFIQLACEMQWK
T2 sequence 2: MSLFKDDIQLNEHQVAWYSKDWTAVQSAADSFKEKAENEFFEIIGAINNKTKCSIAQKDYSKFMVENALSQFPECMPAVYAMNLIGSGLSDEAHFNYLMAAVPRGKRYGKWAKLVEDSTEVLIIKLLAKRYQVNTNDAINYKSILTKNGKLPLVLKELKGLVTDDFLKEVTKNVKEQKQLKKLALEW
T2 sequence 3: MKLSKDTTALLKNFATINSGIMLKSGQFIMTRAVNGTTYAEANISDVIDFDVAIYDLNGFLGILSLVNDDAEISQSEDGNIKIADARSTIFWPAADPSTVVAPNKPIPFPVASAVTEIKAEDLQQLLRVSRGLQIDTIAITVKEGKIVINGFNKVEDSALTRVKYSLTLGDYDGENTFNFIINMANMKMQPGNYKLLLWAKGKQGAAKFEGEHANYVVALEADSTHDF
Kind of data set: fluorescence anisotropy.

Data set [3] concerns the target T3, T4 clamp loader D110C/P50K (P50K*);T4 sliding clamp gp45 (bacteriophage T4;bacteriophage T4, UniProt P04526;P04527;P04525 1-319;1-187;1-228, P50K;D110C|).
T3 sequence 1: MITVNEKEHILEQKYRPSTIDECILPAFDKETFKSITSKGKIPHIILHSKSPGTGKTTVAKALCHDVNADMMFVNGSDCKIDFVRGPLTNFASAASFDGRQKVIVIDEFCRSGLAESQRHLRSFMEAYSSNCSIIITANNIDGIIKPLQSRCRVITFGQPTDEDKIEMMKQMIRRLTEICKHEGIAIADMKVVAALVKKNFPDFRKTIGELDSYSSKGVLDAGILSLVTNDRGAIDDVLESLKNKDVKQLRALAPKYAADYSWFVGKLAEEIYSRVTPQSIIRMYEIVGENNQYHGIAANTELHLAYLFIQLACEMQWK
T3 sequence 2: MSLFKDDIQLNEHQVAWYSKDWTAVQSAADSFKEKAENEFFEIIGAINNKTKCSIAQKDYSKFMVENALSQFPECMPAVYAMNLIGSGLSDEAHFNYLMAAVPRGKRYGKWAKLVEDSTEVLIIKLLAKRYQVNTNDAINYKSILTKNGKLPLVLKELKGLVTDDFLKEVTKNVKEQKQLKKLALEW
T3 sequence 3: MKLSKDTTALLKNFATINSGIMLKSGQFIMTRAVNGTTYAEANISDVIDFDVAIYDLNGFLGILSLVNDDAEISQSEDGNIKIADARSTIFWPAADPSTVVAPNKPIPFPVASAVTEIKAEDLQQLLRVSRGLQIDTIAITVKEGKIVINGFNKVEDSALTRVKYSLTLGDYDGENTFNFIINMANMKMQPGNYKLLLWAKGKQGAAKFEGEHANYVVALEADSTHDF
Put plainly: fluorescence anisotropy.

Data set [4] concerns the molecule itself. Kind of data set: crystal structure.
Data set [5] deals with the molecule itself. Put plainly: crystal structure. This is another data set of the same source.
The target in data set [6] is B3. Kind of data set: cryo-EM structure.
Data set [7] concerns the target B2. Put plainly: cryo-EM structure.
For data set [8], the target named is B5. Kind of data set: crystal structure.

B1: TAMRA primer-template DNA (dsDNA)
DNA 1: TTTTTTTTTTTTATGTACTCGTAGTGTCTG
DNA 2: GCAGACACTACGAGTACATA
The term Kd denotes the constant that tells how readily two partners part at equilibrium. High values mean a looser complex, low ones a tighter complex. For the molecule B1, in data set [1], the Kd is about 40 nM. The binding result in data set [2] and in data set [3] was “binds” each time.

Take B2: in data set [4], the binding result is on record as “binds”.

Regarding B3, the binding result in data set [5] was “binds”.

B4: T4 bacteriophage clamp-loader clasp subunit gp62 (natural protein)
chain: MSLFKDDIQLNEHQVAWYSKDWTAVQSAADSFKEKAENEFFEIIGAINNKTKCSIAQKDYSKFMVENALSQFPECMPAVYAMNLIGSGLSDEAHFNYLMAAVPRGKRYGKWAKLVEDSTEVLIIKLLAKRYQVNTNDAINYKSILTKNGKLPLVLKELKGLVTDDFLKEVTKNVKEQKQLKKLALEW
In the case of B4, the binding result in data set [6], in data set [7] and in data set [8] was “binds” each time.

Regarding B5, the binding result in data set [4] was “binds”.

These data come from article PMC10950542 (Nature structural & molecular biology, 2024).
